In the assay the target is T1, PARP1 (poly (ADP-ribose) polymerase-1) (UniProt P09874 1-1014).
T1 construct: PARP1, bought from Trevigen; Commercial protein; catalogue number not given; source: bought: Trevigen
The experiment in a line: BLI; GST-E2F1 immobilised on GST biosensors; serial dilutions of PARP1; FortéBio BLItz instrument, global fitting. Conditions: both partners purified.

T1 sequence (P09874 whole entry): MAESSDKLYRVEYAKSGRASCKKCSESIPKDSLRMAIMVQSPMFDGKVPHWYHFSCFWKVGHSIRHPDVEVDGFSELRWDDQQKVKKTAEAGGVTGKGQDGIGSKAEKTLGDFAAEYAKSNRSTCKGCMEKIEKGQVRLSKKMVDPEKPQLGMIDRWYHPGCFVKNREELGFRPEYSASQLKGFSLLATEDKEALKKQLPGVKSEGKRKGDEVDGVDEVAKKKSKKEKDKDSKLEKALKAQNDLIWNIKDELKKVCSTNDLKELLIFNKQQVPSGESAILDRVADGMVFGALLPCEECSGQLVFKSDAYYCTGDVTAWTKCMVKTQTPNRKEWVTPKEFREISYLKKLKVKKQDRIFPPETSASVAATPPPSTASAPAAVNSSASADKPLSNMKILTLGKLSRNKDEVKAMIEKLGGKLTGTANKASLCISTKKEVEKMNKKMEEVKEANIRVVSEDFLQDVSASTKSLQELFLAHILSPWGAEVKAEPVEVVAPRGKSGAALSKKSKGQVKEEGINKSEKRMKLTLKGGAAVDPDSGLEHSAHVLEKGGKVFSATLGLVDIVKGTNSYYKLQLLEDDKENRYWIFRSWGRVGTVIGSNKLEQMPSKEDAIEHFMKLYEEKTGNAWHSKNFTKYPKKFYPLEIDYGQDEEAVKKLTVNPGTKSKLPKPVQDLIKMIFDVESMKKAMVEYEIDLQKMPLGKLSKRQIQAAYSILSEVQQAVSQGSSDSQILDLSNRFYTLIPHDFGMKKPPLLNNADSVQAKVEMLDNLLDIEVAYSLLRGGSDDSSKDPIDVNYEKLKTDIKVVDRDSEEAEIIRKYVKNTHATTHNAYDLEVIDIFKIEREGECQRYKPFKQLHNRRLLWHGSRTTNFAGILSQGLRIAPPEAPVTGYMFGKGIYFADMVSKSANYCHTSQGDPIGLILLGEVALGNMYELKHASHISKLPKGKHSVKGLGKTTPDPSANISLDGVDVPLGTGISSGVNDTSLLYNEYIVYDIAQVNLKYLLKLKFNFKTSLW

B1: Recombinant GST-hE2F1 (natural protein)
chain: not shown
notes: E2F1 transcription factor, human (hE2F1); also called GST-E2F1; source: recombinant, purified as described elsewhere [27]
On to B1, for which the Kd came out at 22 µM.

For the origin of these results see PMC7599842, “PARP1 Deficiency Reduces Tumour Growth by Decreasing E2F1 Hyperactivation: A Novel Mechanism in the Treatment of Cancer” (Cancers, 2020).
